# Assay results from patent US20070059320A1 (HOSPITAL FOR SICK CHILDREN, published 2007).
# Ends that are not written are not given here.
# T1: potassium channel Kv3.1, native protein in PSD preparations (rat, UniProt P25122 1-585)
# T1 sequence (looked up): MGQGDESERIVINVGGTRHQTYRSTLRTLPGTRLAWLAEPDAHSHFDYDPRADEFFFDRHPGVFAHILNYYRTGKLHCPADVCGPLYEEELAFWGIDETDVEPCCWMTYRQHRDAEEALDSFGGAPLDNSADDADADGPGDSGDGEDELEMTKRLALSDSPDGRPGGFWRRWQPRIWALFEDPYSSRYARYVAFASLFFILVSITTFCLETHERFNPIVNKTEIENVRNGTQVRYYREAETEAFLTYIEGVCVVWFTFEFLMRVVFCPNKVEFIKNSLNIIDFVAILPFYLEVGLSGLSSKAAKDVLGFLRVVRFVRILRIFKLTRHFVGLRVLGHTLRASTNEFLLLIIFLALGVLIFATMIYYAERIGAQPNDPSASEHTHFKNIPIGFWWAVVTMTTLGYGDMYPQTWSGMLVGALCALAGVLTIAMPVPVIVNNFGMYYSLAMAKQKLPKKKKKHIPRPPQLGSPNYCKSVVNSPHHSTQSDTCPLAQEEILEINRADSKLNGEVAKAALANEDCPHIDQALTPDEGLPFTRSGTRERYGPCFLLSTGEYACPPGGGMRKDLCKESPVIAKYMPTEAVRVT
# Columns and labels:
# [1] = biological target: T2, recombinant Src unique domain (biotinylated probe) (murine (n-Src), UniProt P12931 5-83 (human entry), biotinylated); experiment: blot of ND2-GST fusion proteins probed with biotinylated Src unique domain, streptavidin-HRP
# T2 construct: also called unique domain of Src; Src unique domain protein; not shown: GST tag of vector pGEX2T'6; purified as GST fusion protein
# [2] = biological target: non-receptor tyrosine kinase Src, native protein in brain lysates, PSD preparations, hippocampal neurons and … (rat, UniProt Q9WUD9 2-536, limits assumed); experiment: GST pull-down from PSD preparations, immunoblot
# [3] = biological target: T1, potassium channel Kv3.1, native protein …; experiment: co-immunoprecipitation from PSD preparations with anti-Kv3.1, probed with anti-ND2
# [4] = biological target: T3, GluR2, native protein in PSD preparations (rat, UniProt P19491 22-883, limits assumed); experiment: co-immunoprecipitation from PSD preparations with anti-GluR2, probed with anti-ND2
# T3 construct: also called AMPA receptor complex
# T3 sequence (P19491 22-883 limits assumed): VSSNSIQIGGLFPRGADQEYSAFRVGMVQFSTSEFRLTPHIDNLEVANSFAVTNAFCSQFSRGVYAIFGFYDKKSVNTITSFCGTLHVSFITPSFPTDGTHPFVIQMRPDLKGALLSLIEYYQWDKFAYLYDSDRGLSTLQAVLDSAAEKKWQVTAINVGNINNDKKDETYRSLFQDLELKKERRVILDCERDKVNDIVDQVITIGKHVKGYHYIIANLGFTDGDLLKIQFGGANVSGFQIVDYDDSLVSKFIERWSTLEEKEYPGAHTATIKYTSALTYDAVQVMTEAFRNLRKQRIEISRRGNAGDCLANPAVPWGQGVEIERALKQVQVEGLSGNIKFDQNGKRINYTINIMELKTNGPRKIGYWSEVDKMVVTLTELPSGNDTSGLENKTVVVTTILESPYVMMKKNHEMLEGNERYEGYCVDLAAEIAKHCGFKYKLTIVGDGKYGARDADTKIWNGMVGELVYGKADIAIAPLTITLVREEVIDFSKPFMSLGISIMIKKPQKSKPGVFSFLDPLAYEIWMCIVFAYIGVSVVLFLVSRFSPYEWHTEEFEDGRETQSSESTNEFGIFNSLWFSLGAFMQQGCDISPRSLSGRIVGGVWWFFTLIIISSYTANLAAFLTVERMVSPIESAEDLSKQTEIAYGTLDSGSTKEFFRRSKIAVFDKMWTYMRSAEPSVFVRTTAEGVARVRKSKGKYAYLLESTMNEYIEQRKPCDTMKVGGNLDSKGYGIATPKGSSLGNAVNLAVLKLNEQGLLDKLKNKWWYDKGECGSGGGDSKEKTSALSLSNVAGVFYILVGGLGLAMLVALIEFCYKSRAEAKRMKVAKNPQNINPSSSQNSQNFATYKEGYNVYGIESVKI
binding result [1],binding result [2],binding result [3],binding result [4],Binder
no binding,no binding,–,–,"WMMAVLPYNPNMTILNLTIYIILTTTAFLLLNLNSSTTTLLLSRTWNKLT (other, also: fused to GST tag of pGEX vector, sequence and linker not given here, not shown: glutathione S-transferase (GST) tag of vector pGEX4T-1) [ND2.2-GST fusion protein (amino acids 189-238 of human ND2)]"
–,no binding,–,–,"ND2.3-GST fusion protein (amino acids 1-188 of human ND2) (other, not shown: glutathione S-transferase (GST) tag of vector pGEX4T-1) MNPLAQPVIYSTIFAGTLITALSSHWFFTWVGLEMNMLAFIPVLTKKMNPRSTEAAIKYFLTQATASMILLMAILFNNMLSGQWTMTNTTNQYSSLMIMMAMAMKLGMAPFHFWVPEVTQGTPLTSGLLLLTWQKLAPISIMYQISPSLNVSLLLTLSILSIMAGSWGGLNQTQLRKILAYSSITHMG"
–,–,no binding,no binding,"NADH dehydrogenase subunit 2 (ND2), native protein in brain lysates, PSD preparations, hippocampal neurons and tissues (other, UniProt P11662 1-346, looked up) MNPITLIIIYFTILMGPVITMSSSNLLLMWVGLEMSLLAIIPLLANKKSPRSTEAATKYFLTQATASMIILLVIILNYKQSGMWTLQQQTNNMLLNMMLISLAMKLGLAPFHYWLPEVTQGIPLHIGLILLTWQKIAPLSILYQFYQLLNPTITTILAISSVFVGAWGGLNQTQTRKIMAYSSIAHMGWMTAILPYNPNLTLLNLTIYILLTVPMFITLMTNSATTINTLSLAWNKTPMILTMTSIILLSLGGLPPLTGFLPKWAIISELLKNNCSTLSTLMAIMALLSLFFYTRLIYSMSLTMFPTNNNSKMISHHHQNPKHNFILPTLTVLSTLTLPLSSQLIT"
